# Reference: patent US7462599
# B1: recombinant human glutaminyl cyclase (QC, EC 2.3.2.5) (protein)
# chain: VSPSASAWPEEKNYHQPAILNSSALRQIAEGTSISEMWQNDLQPLLIERYPGSPGSYAARQHIMQRIQRLQADWVLEIDTFLSQTPYGYRSFSNIISTLNPTAKRHLVLACHYDSKYFSHWNNRVFVGATDSAVPCAMMLELARALDKKLLSLKTVSDSKPDLSLQLIFFDGEEAFLHWSPQDSLYGSRHLAAKMASTPHPPGARGTSQLHGMDLLVLLDLIGAPNPTFPNFFPNSARWFERLQAIEHELHELGLLKDHSLEGRYFQNYSYGGVIQDDHIPFLRRGVPVLHLIPSPFPEVWHTMDDNEENLDESTIDNLNKILQVFVLEYLHL
# Legend:
# [Gln^1]-GnRH = target: T1, [Gln^1]-GnRH
# T1 chain: QHWSYGLRPG
# H-Gln-Tyr-Ala-OH = target: T2, H-Gln-Tyr-Ala-OH
# T2 chain: QYA
# Gln^3-Aβ(3-11)a = target: T3, Gln^3-Aβ(3-11)a
# T3 chain: QFRHDSGYE
# [1] = target: T4, H-Gln-Ala-Ala-Ala-Ala-NH2
# T4 chain: QAAAA
# [2] = target: T5, [Gln^5]-substance P(5-11)
# T5 chain: QQFFGLM
# [3] = target: T6, H-Gln-Ala-Ala-Ser-Ala-Ala-NH2
# T6 chain: QAASAA
# H-Gln-Tyr-OH = target: T7, H-Gln-Tyr-OH
# T7 chain: QY
# H-Gln-Phe-Ala-NH2 = target: T8, H-Gln-Phe-Ala-NH2
# T8 chain: QFA
# H-Gln-Glu-OH = target: T9, H-Gln-Glu-OH
# T9 chain: QE
# H-Gln-Glu-Asp-Leu-NH2 = target: T10, H-Gln-Glu-Asp-Leu-NH2
# T10 chain: QEDL
# H-Gln-Glu-Tyr-NH2 = target: T11, H-Gln-Glu-Tyr-NH2
# T11 chain: QEY
# H-Gln-Asn-Gly-Ile-NH2 = target: T12, H-Gln-Asn-Gly-Ile-NH2
# T12 chain: QNGI
# H-Gln-His-Tyr-Phe-NH2 = target: T13, H-Gln-His-Tyr-Phe-NH2
# T13 chain: QHYF
# H-Gln-Arg-Tyr-Phe-NH2 = target: T14, H-Gln-Arg-Tyr-Phe-NH2
# T14 chain: QRYF
# H-Gln-Glu-Tyr-Ala-NH2 = target: T15, H-Gln-Glu-Tyr-Ala-NH2
# T15 chain: QEYA
# H-Gln-Pro-Tyr-Phe-NH2 = target: T16, H-Gln-Pro-Tyr-Phe-NH2
# T16 chain: QPYF
# H-Gln-Gly-Pro-OH = target: T17, H-Gln-Gly-Pro-OH
# T17 chain: QGP
# H-Gln-Glu-Tyr-Phe-NH2 = target: T18, H-Gln-Glu-Tyr-Phe-NH2
# T18 chain: QEYF
# H-Gln-Ala-NH2 = target: T19, H-Gln-Ala-NH2
# T19 chain: QA
# H-Gln-Ala-OH = target: T20, H-Gln-Ala-OH
# T20 chain: QA
# H-Gln-Lys-Arg-Leu-NH2 = target: T21, H-Gln-Lys-Arg-Leu-NH2
# T21 chain: QKRL
# H-Gln-Trp-Ala-NH2 = target: T22, H-Gln-Trp-Ala-NH2
# T22 chain: QWA
# H-Gln-Val-OH = target: T23, H-Gln-Val-OH
# T23 chain: QV
# H-Gln-Gln-OH = target: T24, H-Gln-Gln-OH
# T24 chain: QQ
# H-Gln-Gln-Tyr-Phe-NH2 = target: T25, H-Gln-Gln-Tyr-Phe-NH2
# T25 chain: QQYF
# H-Gln-Ser-Tyr-Phe-NH2 = target: T26, H-Gln-Ser-Tyr-Phe-NH2
# T26 chain: QSYF
# H-Gln-Glu-Ala-Ala-NH2 = target: T27, H-Gln-Glu-Ala-Ala-NH2
# T27 chain: QEAA
# H-Gln-Glu-Ala-Phe-NH2 = target: T28, H-Gln-Glu-Ala-Phe-NH2
# T28 chain: QEAF
# [4] = target: T29, H-βhomoGln-Phe-Lys-Arg-Leu-Ala-NH2
# T29 chain: QFKRLA
# H-Gln-Gly-OH = target: T30, H-Gln-Gly-OH
# T30 chain: QG
# [5] = target: T31, H-Gln-cyclo(Nε-Lys-Arg-Pro-Ala-Gly-Phe)
# T31 chain: QKRPAGF
# H-Gln-Arg-Gly-Ile-NH2 = target: T32, H-Gln-Arg-Gly-Ile-NH2
# T32 chain: QRGI
protein,measurement,setting,value
B1,KM (substrate conversion by QC),[Gln^1]-GnRH,53 µM
same,KM (substrate conversion by QC),H-Gln-Tyr-Ala-OH,101 µM
same,KM (buffer containing 1% DMSO),Gln^3-Aβ(3-11)a,155 µM
same,KM (substrate conversion by QC),[1],65 µM
same,"substrate conversion, determined qualitatively by MALDI-TOF",[2],*
same,KM (substrate conversion by QC),[3],79 µM
same,KM (substrate conversion by QC),H-Gln-Tyr-OH,211 µM
same,KM (substrate conversion by QC),H-Gln-Phe-Ala-NH2,69 µM
same,"KM (0.05 M Tris-HCl, pH 8.0)",H-Gln-Glu-OH,0.373 mM
same,"KM (0.05 M Tris-HCl, pH 8.0, 0.5 M KCl)",H-Gln-Glu-OH,0.607 mM
same,KM (substrate conversion by QC),H-Gln-Glu-OH,359 µM
same,"KM (0.05 M Tris-HCl, pH 8.0)",H-Gln-Glu-Asp-Leu-NH2,0.06 mM
same,"KM (0.05 M Tris-HCl, pH 8.0, 0.5 M KCl)",H-Gln-Glu-Asp-Leu-NH2,0.061 mM
same,KM (substrate conversion by QC),H-Gln-Glu-Asp-Leu-NH2,55 µM
same,KM (substrate conversion by QC),H-Gln-Glu-Tyr-NH2,79 µM
same,KM (substrate conversion by QC),H-Gln-Asn-Gly-Ile-NH2,172 µM
same,KM (substrate conversion by QC),H-Gln-His-Tyr-Phe-NH2,68 µM
same,KM (substrate conversion by QC),H-Gln-Arg-Tyr-Phe-NH2,55 µM
same,KM (substrate conversion by QC),H-Gln-Glu-Tyr-Ala-NH2,69 µM
same,KM (substrate conversion by QC),H-Gln-Pro-Tyr-Phe-NH2,1890 µM
same,KM (substrate conversion by QC),H-Gln-Gly-Pro-OH,130 µM
same,KM (substrate conversion by QC),H-Gln-Glu-Tyr-Phe-NH2,47 µM
same,KM (substrate conversion by QC),H-Gln-Ala-NH2,155 µM
same,"KM (0.05 M Tris-HCl, pH 8.0)",H-Gln-Ala-OH,0.269 mM
same,"KM (0.05 M Tris-HCl, pH 8.0, 0.5 M KCl)",H-Gln-Ala-OH,0.357 mM
same,KM (substrate conversion by QC),H-Gln-Ala-OH,232 µM
same,"KM (0.05 M Tris-HCl, pH 8.0)",H-Gln-Lys-Arg-Leu-NH2,0.051 mM
same,"KM (0.05 M Tris-HCl, pH 8.0, 0.5 M KCl)",H-Gln-Lys-Arg-Leu-NH2,0.034 mM
same,KM (substrate conversion by QC),H-Gln-Lys-Arg-Leu-NH2,54 µM
same,"KM (0.05 M Tris-HCl, pH 8.0)",H-Gln-Trp-Ala-NH2,0.054 mM
same,"KM (0.05 M Tris-HCl, pH 8.0, 0.5 M KCl)",H-Gln-Trp-Ala-NH2,0.056 mM
same,KM (substrate conversion by QC),H-Gln-Trp-Ala-NH2,50 µM
same,KM (substrate conversion by QC),H-Gln-Val-OH,196 µM
same,KM (substrate conversion by QC),H-Gln-Gln-OH,148 µM
same,KM (substrate conversion by QC),H-Gln-Gln-Tyr-Phe-NH2,41 µM
same,KM (substrate conversion by QC),H-Gln-Ser-Tyr-Phe-NH2,55 µM
same,KM (substrate conversion by QC),H-Gln-Glu-Ala-Ala-NH2,77 µM
same,KM (substrate conversion by QC),H-Gln-Glu-Ala-Phe-NH2,39 µM
same,KM (substrate conversion by QC),[4],KM=2.5±0.2 mM
same,KM (substrate conversion by QC),H-Gln-Gly-OH,247 µM
same,KM (substrate conversion by QC),[5],"KM-values of 240±14 µM and 133±5 µM for human and papaya QC, respectively"
same,"KM (0.05 M Tris-HCl, pH 8.0)",H-Gln-Arg-Gly-Ile-NH2,0.166 mM
same,"KM (0.05 M Tris-HCl, pH 8.0, 0.5 M KCl)",H-Gln-Arg-Gly-Ile-NH2,0.091 mM
same,KM (substrate conversion by QC),H-Gln-Arg-Gly-Ile-NH2,143 µM
